Assay results: article PMC7088854 (Molecular and Cellular Biochemistry, 2009)

T1: Myc-DC-SIGNR (UniProt Q9H2X3 1-399)
T1 sequence (looked up): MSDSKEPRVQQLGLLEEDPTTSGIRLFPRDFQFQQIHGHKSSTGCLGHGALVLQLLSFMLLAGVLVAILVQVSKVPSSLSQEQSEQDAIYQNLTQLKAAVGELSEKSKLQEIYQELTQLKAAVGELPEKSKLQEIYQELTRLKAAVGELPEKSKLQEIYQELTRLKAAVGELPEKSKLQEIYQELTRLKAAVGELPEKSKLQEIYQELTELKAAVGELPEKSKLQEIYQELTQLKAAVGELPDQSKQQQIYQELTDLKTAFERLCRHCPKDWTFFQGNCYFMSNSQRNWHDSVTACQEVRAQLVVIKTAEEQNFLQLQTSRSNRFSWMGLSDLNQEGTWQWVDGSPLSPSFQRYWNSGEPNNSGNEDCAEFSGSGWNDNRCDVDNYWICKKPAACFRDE


The binders below were run against T1, Myc-DC-SIGNR (assay: co-IP).

Binder | co-precipitated amount relative to wild-type LSECtin (onefold)
Flag-LSECtin D1 (deletion of the potential endocytic motif) (receptor, UniProt Q6UXB4 1-293, looked up) MDTTRGGSSEEVPGGPWGRWVHWSRRPLFLALAVLVTTVLWAVILSILLSKASTERAALLDGHDLLRTNASKQTAALGALKEEVGDCHSCCSGTQAQLQTTRAELGEAQAKLMEQESALRELRERVTQGLAEAGRGREDVRTELFRALEAVRLQNNSCEPCPTSWLSFEGSCYFFSVPKTTWAAAQDHCADASAHLVIVGGLDEQGFLTRNTRGRGYWLGLRAVRHLGKVQGYQWVDGVSLSFSHWNQGEPNDAWGRENCVMMLHTGLWNDAPCDSEKDGWICEKRHNC | 1.2 fold of wild type
Flag-LSECtin M1 (N73A) (receptor, UniProt Q6UXB4 1-293, looked up) MDTTRYSKWGGSSEEVPGGPWGRWVHWSRRPLFLALAVLVTTVLWAVILSILLSKASTERAALLDGHDLLRTAASKQTAALGALKEEVGDCHSCCSGTQAQLQTTRAELGEAQAKLMEQESALRELRERVTQGLAEAGRGREDVRTELFRALEAVRLQNNSCEPCPTSWLSFEGSCYFFSVPKTTWAAAQDHCADASAHLVIVGGLDEQGFLTRNTRGRGYWLGLRAVRHLGKVQGYQWVDGVSLSFSHWNQGEPNDAWGRENCVMMLHTGLWNDAPCDSEKDGWICEKRHNC | 0.8 fold of wild type
Flag-LSECtin M2 (N159A) (receptor, UniProt Q6UXB4 1-293, looked up) MDTTRYSKWGGSSEEVPGGPWGRWVHWSRRPLFLALAVLVTTVLWAVILSILLSKASTERAALLDGHDLLRTNASKQTAALGALKEEVGDCHSCCSGTQAQLQTTRAELGEAQAKLMEQESALRELRERVTQGLAEAGRGREDVRTELFRALEAVRLQANSCEPCPTSWLSFEGSCYFFSVPKTTWAAAQDHCADASAHLVIVGGLDEQGFLTRNTRGRGYWLGLRAVRHLGKVQGYQWVDGVSLSFSHWNQGEPNDAWGRENCVMMLHTGLWNDAPCDSEKDGWICEKRHNC | 1.5 fold of wild type
Flag-LSECtin D3 (deficiency of the CRD/CTLD domain) (domain or fragment, UniProt Q6UXB4 1-162, looked up) MDTTRYSKWGGSSEEVPGGPWGRWVHWSRRPLFLALAVLVTTVLWAVILSILLSKASTERAALLDGHDLLRTNASKQTAALGALKEEVGDCHSCCSGTQAQLQTTRAELGEAQAKLMEQESALRELRERVTQGLAEAGRGREDVRTELFRALEAVRLQNNSC | 0.8 fold of wild type
